Experimental data taken from the supplement of paper PMC10724198.
± gives the standard deviation of the averaged measurements.

Columns and labels:
Saccharomyces cerevisiae [1] = assay: protein stability index of tFT-peptide fusion (C-terminal peptide) (PSI (0-1 scale)); higher = more stable (slower turnover); details: genetic background: wild type; temperature: 30 C
Saccharomyces cerevisiae [2] = assay: as above
Method: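 MPS profiling in S. cerevisiae of the tFT-X12 degron library: putative degron peptides plus stable controls, 12 aa, fused to the C-terminus of a sfGFP-mCherry timer. Cells are FACS-sorted into 8 mCherry/sfGFP bins and deep-sequenced. PSI runs from 0 (unstable) to 1 (stable). Backgrounds are wild type, das1Δ and doa10Δ at 30 °C, and wild type, das1Δ, cdc34-1 and cdc53-1 at 37 °C; 2-3 technical replicates each.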

[3] = genetic background: cdc34-1, temperature: 37 C
[4] = genetic background: cdc53-1, temperature: 37 C
[5] = genetic background: das1 deletion, temperature: 30 C
[6] = genetic background: das1 deletion, temperature: 37 C
[7] = genetic background: doa10 deletion, temperature: 30 C
[8] = genetic background: wild type, temperature: 30 C
[9] = genetic background: wild type, temperature: 37 C
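Also: PSI is a weighted mean of sequencing reads over stability bins, variants kept only with over 10 reads, mCherry proximal and sfGFP distal, peptide attached via GGGS linker.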

Sequence	protein stability index (Saccharomyces cerevisiae [1])	protein stability index (Saccharomyces cerevisiae [2]; [3])	protein stability index (Saccharomyces cerevisiae [2]; [4])	protein stability index (Saccharomyces cerevisiae [2]; [5])	protein stability index (Saccharomyces cerevisiae [2]; [6])	protein stability index (Saccharomyces cerevisiae [2]; [7])	protein stability index (Saccharomyces cerevisiae [2]; [8])	protein stability index (Saccharomyces cerevisiae [2]; [9])
GFLAVTVACVWR	0.255 ± 0.048	0.0513 ± 0.0097	0.136 ± 0.0021	0.154 ± 0.018	0.258 ± 0.013	0.13 ± 0.014	0.145 ± 0.037	0.213 ± 0.026
GFLWFCGVPVGW	0.571 ± 0.2	0.695 ± 0.026	0.7385 ± 0.0044	0.609 ± 0.017	0.72 ± 0.027	0.613 ± 0.031	0.613 ± 0.012	0.707 ± 0.018
GFVSLFRLFIRL	0.36 ± 0.066	0.241 ± 0.073	0.218 ± 0.02	0.352 ± 0.032	0.4652 ± 0.0042	0.405 ± 0.024	0.25 ± 0.013	0.3595 ± 0.0028
GGGHGSSCSVCD	0.744 ± 0.032	0.67 ± 0.035	0.74 ± 0.034	0.665 ± 0.023	0.69544 ± 0.00064	0.646 ± 0.013	0.645 ± 0.0097	0.702 ± 0.019
GGGWGVFVVLWW	0.318 ± 0.028	0.193 ± 0.012	0.325 ± 0.0065	0.216 ± 0.034	0.4026 ± 0.0031	0.194 ± 0.0027	0.213 ± 0.031	0.355 ± 0.038
GGIVLLVRVCGP	0.46 ± 0.011	0.55 ± 0.016	0.636 ± 0.0091	0.436 ± 0.019	0.6149 ± 0.0012	0.389 ± 0.0083	0.422 ± 0.018	0.601 ± 0.025
GGLLSQLLRSIG	0.425 ± 0.047	0.664 ± 0.026	0.723 ± 0.019	0.617 ± 0.024	0.743 ± 0.0075	0.2341 ± 0.0008	0.279 ± 0.055	0.5807 ± 0.0052
GGRWRRRGFFFS	0.518 ± 0.097	0.6973 ± 0.0024	0.72 ± 0.01	0.702 ± 0.032	0.709 ± 0.026	0.627 ± 0.0095	0.628 ± 0.01	0.673 ± 0.014
GGYCQMFFLYFR	0.141 ± 0.021	0.0593 ± 0.039	0.0464 ± 0.018	0.0923 ± 0.042	0.0948 ± 0.0031	0.575 ± 0.021	0.0833 ± 0.0047	0.0907 ± 0.031
GHHLRVRVILTA	0.275 ± 0.054	0.4104 ± 0.00042	0.435 ± 0.0077	0.311 ± 0.026	0.47 ± 0.013	0.16006 ± 0.00015	0.189 ± 0.019	0.297 ± 0.013
GICLVLVSDIWI	0.441 ± 0.018	0.579 ± 0.032	0.558 ± 0.0064	0.413 ± 0.026	0.599 ± 0.018	0.374 ± 0.04	0.39 ± 0.014	0.568 ± 0.029
GIGYMFLNVWLV	0.153 ± 0.022	0.234 ± 0.036	0.302 ± 0.0072	0.246 ± 0.024	0.4208 ± 0.00089	0.0963 ± 0.011	0.0848 ± 0.015	0.122 ± 0.017
GKGVFGGLFFLV	0.294 ± 0.0074	0.667 ± 0.029	0.741 ± 0.019	0.623 ± 0.027	0.755 ± 0.013	0.182 ± 0.0027	0.211 ± 0.021	0.465 ± 0.011
GLGLIRTSRLLC	0.278 ± 0.037	0.609 ± 0.008	0.695 ± 0.026	0.627 ± 0.02	0.718 ± 0.0034	0.148 ± 0.027	0.186 ± 0.029	0.296 ± 0.027
GLLAFVCISHTS	0.458 ± 0.039	0.497 ± 0.044	0.542 ± 0.0086	0.378 ± 0.033	0.575 ± 0.019	0.312 ± 0.0026	0.344 ± 0.026	0.5396 ± 0.0015
GLPRRFLLLSVV	0.218 ± 0.0055	0.328 ± 0.008	0.4613 ± 0.0015	0.354 ± 0.033	0.508 ± 0.015	0.11 ± 0.016	0.137 ± 0.016	0.114 ± 0.02
GPHATYLYLVLA	0.2383 ± 0.00092	0.199 ± 0.022	0.258 ± 0.022	0.226 ± 0.039	0.34 ± 0.0059	0.1579 ± 0.00054	0.177 ± 0.018	0.22866 ± 0.00017
GPRRARLPNFLA	0.085 ± 0.012	0.445 ± 0.013	0.684 ± 0.031	0.657 ± 0.018	0.715 ± 0.018	0.0795 ± 0.025	0.0947 ± 0.025	0.123 ± 0.022
GQSRLVADLRQV	0.7147 ± 0.00089	0.635 ± 0.055	0.6934 ± 0.0012	0.646 ± 0.012	0.678 ± 0.018	0.676 ± 0.035	0.676 ± 0.0081	0.675 ± 0.025
